We go through one molecule from patent EP4480965A1, “TRANSFERRIN RECEPTOR-BINDING MOLECULES, CONJUGATES THEREOF AND THEIR USES TO PREVENT OR TREAT CNS DISEASES” (Vect-Horus, priority 2023, dated 2024).

This assay relates to murine SOD1 mRNA. Description: CNS knock-down of SOD1 mRNA after single ICV administration (RT-qPCR). Type of assay: in vivo, C57Bl/6 mice. To be noted: seven days. The method, then: VHH-siSOD 1m conjugates were assessed for their potential to mediate murine SOD1 mRNA knock-down in the brain and spinal cord following intracerebroventicular (ICV) administration in wild-type C57Bl/6 mice. Wild-type C57Bl/6 mice (4 per group) were injected a single ICV dose (right lateral ventricle, 5-10 µL at 0.75 µL/min) of 100 µg (siRNA molar equivalent) of PBS vehicle (control), unconjugated siSOD1m-5'VP or the indicated VHH-siSOD1m-5'VP conjugates. Seven days after injection, tissue samples including total brain (right hemisphere), brain regions (from the left hemisphere), spinal cord and the liver were withdrawn, snap-frozen in 10 vol. ofNucleoProtect RNA stabilization reagent (Macherey-Nagel) and stored at -20°C. Frozen tissue samples were homogenized in QUIAzol lysis reagent using a Precellys Evolution tissue homogenizer equipped with a Cryolys Evolution cooling system (Bertin Instruments). Total RNA was extracted from tissue homogenates using the rNeasy 96 QIAcube HT Kit (QIAGEN) in a QIAcube HT system. RNA samples were analyzed and dosed using a Fragment Analyzer RNA kit in a Fragment Analyzer system (Agilent). Relative RNA expression levels were quantified by RT-qPCR using the TaqMan™ Fast Universal PCR Master Mix (2X) no AmpErase™ UNG kit (Applied Biosystems) and commercially available TaqMan™ probes for murine SOD1 and RpL13 genes (Applied Biosystems). Expression data were analyzed using the ΔΔCq method normalized to the expression of the reference RpL13 gene, based on raw quantification cycle (Cq) values (Bustin et al.). The results are expressed as means ± standard error of the mean (SEM) and are presented as mRNA levels relative to the control animals injected with PBS.
Biodistribution of VHH-siRNA conjugates and CNS knock-down of the target SOD1 mRNAVHH-siSODlm conjugates were evaluated using in situ hybridization methods (ISH) on brain and spinal cord samples following single ICV administration in wild-type mice. […]

B1: C5-siSOD1m-5'VP: TfR-binding VHH-siRNA conjugate wherein VHH is C5 (conjugate)
VHH: EVQLVESGGGVVQPGGSLKLSCVASGTDFSINFIRWYRQAPGKQREFVAGFTATGNTNYADSMKGRFTISRDNTKNAVYLQIDSLKPEDTAVYYCYMLDKWGQGTQVTVSSAAAEQKLISEEDLNGAAHHHHHHGS
For the molecule B1, the “SOD1 mRNA knock-down (KD) in brain and spinal cord” value (single ICV dose 100 µg (siRNA molar equivalent)) is given as 80-90%. In addition, where the note is “single ICV dose 100 µg”, the “SOD1 mRNA KD in brain regions of the left hemisphere” value is given as 60-90% and the “downregulation of SOD1 mRNA in all regions tested of the brain ipsilateral (right) hemisphere” value is recorded as 70-90%.
